Laboratory results as given in paper PMC5909903, “Impact of selected amino acids of HP0377 (Helicobacter pylori thiol oxidoreductase) on its functioning as a CcmG (cytochrome c maturation) protein and Dsb (disulfide bond) isomerase” (PLoS ONE, 2018).

B1: HP0377 (Helicobacter pylori thiol oxidoreductase), amino acids 25-187 (domain or fragment, Helicobacter pylori strain 26695, UniProt O25140 25-187, looked up)
chain: CKSNNKDKLDENLLSSGSQSSKELNDERDNIDKKSYAGLEDVFSDNKSISPNDKYMLLVFGRNGCSYCERFKKDLKNVKELRDYIKEHFSAYYVNISYSKEHDFKVGDKNNEKEIKMSTEELAQIYAVQSTPTIVLSDKTGKTIYELPGYMPSTQFLAVLEFI
notes: HP0377 (CcmG family thiol oxidoreductase), Helicobacter pylori 26695, amino acids 25-187 of the native HP0377; also called 25-187 variant of HP0377; C-terminal-truncated HP0377; source: E. coli, purified
B2: HP0377 (Helicobacter pylori thiol oxidoreductase), amino acids 33-221 (domain or fragment, Helicobacter pylori strain 26695, UniProt O25140 33-221, looked up)
chain: LDENLLSSGSQSSKELNDERDNIDKKSYAGLEDVFSDNKSISPNDKYMLLVFGRNGCSYCERFKKDLKNVKELRDYIKEHFSAYYVNISYSKEHDFKVGDKNNEKEIKMSTEELAQIYAVQSTPTIVLSDKTGKTIYELPGYMPSTQFLAVLEFIGDGKYQDTKDDEDLTKKLKAYIKYKTNLSKSKSN
notes: HP0377 (CcmG family thiol oxidoreductase), Helicobacter pylori 26695, amino acids 33-221 of the native HP0377; the variant previously analysed by Yoon et al. [16]; also called 33-221 variant of HP0377; N-terminal-shortened HP0377; source: E. coli, purified

Assays:
[1] = target: apocytochrome c (HP1227) (Helicobacter pylori) (UniProt O25825); test: SEC; lysates of E. coli overexpressing HP0377 CSYA and HP1227 mixed, overnight at 37°C, Ni IMAC, then ENrich SEC70 in 20 mM Tris pH 8, 150 mM NaCl; fractions on SDS-PAGE with or without DTT; covalent (disulfide) complex
[2] = target: the molecule itself; test: cross-linking; glutaraldehyde (0.001-0.1%) on purified truncated HP0377 at 2.5 mg/ml, SDS-PAGE

Molecule	stoichiometry N (HP0377 per apocytochrome c) [1]	stoichiometry N [2]
HP0377 with the CSYC motif changed to CSYA (C92A), amino acids 25-221, His6 fusion (from UniProt O25140 25-221) (enzyme)	2	
B1		2
B2		2
